Our source for the binding result, IC50 and % inhibition of 15E10 values is patent publication WO2005095457A2 (dated 2005).

What is called IC50 is the midpoint of a concentration-inhibition curve.

In assay [1] the target is T1, cynomolgus monkey OSM (cOSM) (cynomolgus monkey, UniProt P13725 26-221 (human entry), limits assumed).
T1 construct: also called cynomolgus OSM
T1 chain: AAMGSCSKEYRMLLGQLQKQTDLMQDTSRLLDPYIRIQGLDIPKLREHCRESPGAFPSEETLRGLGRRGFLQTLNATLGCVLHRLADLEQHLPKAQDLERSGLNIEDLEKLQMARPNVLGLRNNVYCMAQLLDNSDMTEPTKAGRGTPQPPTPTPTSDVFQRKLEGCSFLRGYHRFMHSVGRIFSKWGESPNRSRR
The experiment in a line: gp130 inhibition ELISA and KB cell assay. (An ELISA detects its analyte on a solid surface through an enzyme-linked reagent.)

Assay [2] deals with T1, cynomolgus monkey OSM (cOSM). The experiment in a line: gp130 inhibition ELISA, cynomolgus OSM.
Assay [3] addresses T2, human Oncostatin M (hOSM) (human, UniProt P13725 26-221).
T2 construct: also called human OSM
T2 sequence: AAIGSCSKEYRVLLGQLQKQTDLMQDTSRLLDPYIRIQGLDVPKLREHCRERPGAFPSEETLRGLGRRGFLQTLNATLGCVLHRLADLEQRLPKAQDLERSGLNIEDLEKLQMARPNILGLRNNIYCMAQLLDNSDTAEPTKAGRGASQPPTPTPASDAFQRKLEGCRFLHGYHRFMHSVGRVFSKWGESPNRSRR
The experiment in a line: gp130 ELISA, hOSM.

Assay [4] addresses T3, glycosylated human OSM (hOSM) produced in CHO cells (human) (UniProt P13725).
T3 sequence (chain, glycosylated (CHO cell glycosylated)): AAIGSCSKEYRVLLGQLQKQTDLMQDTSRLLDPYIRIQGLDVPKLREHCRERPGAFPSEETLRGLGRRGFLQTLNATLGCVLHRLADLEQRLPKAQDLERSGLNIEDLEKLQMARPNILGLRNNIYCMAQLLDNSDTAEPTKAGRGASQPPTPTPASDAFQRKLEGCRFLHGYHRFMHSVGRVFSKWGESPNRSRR
The experiment in a line: competition ELISA: murine 10D3 titrated against 15E10-B3L2 (150 ng/ml, the competitor) on soluble glycosylated hOSM (50 ng/ml), capture by OM4-11.31, anti-human gamma chain detection.

Assay [5] deals with T1, cynomolgus monkey OSM (cOSM). The experiment in a line: gp130 inhibition ELISA, purified antibodies.

B1: 15E10 chimaeric antibody (antibody, human IgG1, V domains shown)
VH: QVQLKQSGPGLVQPSQSLSITCTVSGFSLTNYGVHWVRQSPGKGLEWLGVIWRGGSTDYNAAFMSRLSITKDNSRSQVFFKMNSLQADDTAIYYCAKSPNSNFYWYFDVWGTGTTVTVSS
VL: QIVLTQSPTIMSASPGEKVTMTCSGSSSVSYMYWYQEKPGSSPRLLIEDTSNLASGVPARFSGSGSGTSYSLTISRMEAEDAATYYCQQWSSYPPTFGSGTKLEIK
notes: expressed in CHO; also called chimaeric 15E10; 15E10 chimaera
Regarding B1, the binding result in assay [1] was “binds”.

B2: 15E10 murine antibody (antibody, mouse IgG2a, V domains shown)
VH: QVQLKQSGPGLVQPSQSLSITCTVSGFSLTNYGVHWVRQSPGKGLEWLGVIWRGGSTDYNAAFMSRLSITKDNSRSQVFFKMNSLQADDTAIYYCAKSPNSNFYWYFDVWGTGTTVTVSS
VL: QIVLTQSPTIMSASPGEKVTMTCSGSSSVSYMYWYQEKPGSSPRLLIEDTSNLASGVPARFSGSGSGTSYSLTISRMEAEDAATYYCQQWSSYPPTFGSGTKLEIK
notes: also called clone 15E10; parent murine 15E10
On to B2, for which the binding result in assay [2] is on record as “binds”.

B3: 10D3 chimaeric antibody (antibody, human IgG1, V domains shown)
VH: EVQLQQSGPELVKPGASVKISCKASGYIFTDYNMDWVKQSHGKKLEWIGDINPNNGGTIDNQKFKDKATLTVDKSSSTAYMELRSLTSEDTAVYYCARGIYYYGSHYFDYWGQGTTLTVSS
VL: QIVLTQSPAIMSASPGEKVTMTCSATSSVSVMHWFQKKSGTSPKRWIYDTSKLASGVPTRFSGSGSGTSYSLTISSMEAEDTATYYCQQWSSNPLTFGSGTKLELK
notes: expressed in CHO; also called chimaeric 10D3; chimeric 10D3
B3: in assay [3], the midpoint of inhibition, the IC50, lay at 0.032 µg/mL. This molecule came in with a % inhibition of 15E10 at equimolarity (0.15μg/ml) in assay [4] of 62.3%.

B4: humanised 15E10 antibody B3L2 (antibody, human IgG1, kappa, V domains shown)
VH: QVQLVESGGGVVQPGRSLRLSCAASGFSLTNYGVHWVRQAPGKGLEWVAVIWRGGSTDYNAAFMSRFTISKDNSKNTLYLQMNSLRAEDTAVYYCAKSPNSNFYWYFDVWGRGTLVTVSS
VL: EIVLTQSPATLSLSPGERATLSCSGSSSVSYMYWYQQKPGQAPRLLIEDTSNLASGIPARFSGSGSGTDYTLTISNLEPEDFAVYYCQQWSSYPPTFGQGTKLEIKR
notes: Human IgG1 wild type / kappa; purified from CHO; also called B3L2 wt; 15E10-B3L2
Regarding B4, the binding result in assay [5] is on record as “binds”.
